Source: paper PMC5864733

Columns and labels:
Experiment in all cases: SEC
[1] = target: CsrA (residues 1-61), GST tag removed (enteropathogenic E. coli (EPEC) O127:H6 E2348/69) (UniProt P69913)
[2] = target: CesT-Y152A (residues 1-156, Y152A) (enteropathogenic E. coli (EPEC) O127:H6 E2348/69) (UniProt P21244)
[3] = target: CesT-E121A/Y152A (residues 1-156, E121A + Y152A) (enteropathogenic E. coli (EPEC) O127:H6 E2348/69) (UniProt P21244)
[4] = target: CesT-E121A (residues 1-156, E121A) (enteropathogenic E. coli (EPEC) O127:H6 E2348/69) (UniProt P21244)
[5] = target: CsrA tetra-mutant (residues 1-61, R31A + K38A + H43A + R44A) (enteropathogenic E. coli (EPEC) O127:H6 E2348/69) (UniProt P69913)
[6] = target: CsrA-Cdel (residues 1-44) (enteropathogenic E. coli (EPEC) O127:H6 E2348/69) (UniProt P69913)

CsrA (residues 1-61), GST tag removed, P69913 1-61 (natural protein; other documents disagree on this pair)
stoichiometry N [1]: 2

CesT-Y152A (residues 1-156, Y152A) (from UniProt P21244 1-156) (natural protein)
stoichiometry N [2]: 2

CesT-E121A/Y152A (residues 1-156, E121A + Y152A) (from UniProt P21244 1-156) (natural protein)
stoichiometry N [3]: 2

CesT-E121A (residues 1-156, E121A) (from UniProt P21244 1-156) (natural protein)
stoichiometry N [4]: 2

CsrA tetra-mutant (residues 1-61, R31A + K38A + H43A + R44A) (from UniProt P69913 1-61) (natural protein)
stoichiometry N [5]: 2

CsrA-Cdel (residues 1-44) (from UniProt P69913 1-44) (domain or fragment)
stoichiometry N [6]: 2
